Experiments:
Ev1 protein [1] = target: T1, Ev1 protein (Homo sapiens, UniProt Q9UI08); assay: Influence of Rad51B or Rad51 on catenation of single-stranded DNA by the Ev1 protein; assay type: biochemical
T1 construct: in accordance with the protocols used in purification of the entire-length Ev1 protein; 6xHis (N, cleaved yes); made in house; host or cells: E. coli BL21 (DE3) codon plus-RP, pET15b vector
T1 sequence (Q9UI08 1-418 isoform Q9UI08-2): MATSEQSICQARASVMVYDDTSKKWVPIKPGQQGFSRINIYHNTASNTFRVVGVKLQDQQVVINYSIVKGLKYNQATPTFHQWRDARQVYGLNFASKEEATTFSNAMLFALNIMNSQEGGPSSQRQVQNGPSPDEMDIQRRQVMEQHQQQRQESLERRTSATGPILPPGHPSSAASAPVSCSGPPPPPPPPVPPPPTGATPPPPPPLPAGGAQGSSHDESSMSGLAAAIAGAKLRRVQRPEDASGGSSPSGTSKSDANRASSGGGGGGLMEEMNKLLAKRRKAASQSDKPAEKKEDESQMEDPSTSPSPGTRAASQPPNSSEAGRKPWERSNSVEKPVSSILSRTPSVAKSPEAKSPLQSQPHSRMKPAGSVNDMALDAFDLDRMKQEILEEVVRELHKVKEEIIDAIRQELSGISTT
Procedure: Lanes 1 and 5 indicate the results of control experiments in which neither the Ev1 nor the Rad51B protein was used. Lanes 2 and 6 indicate the results of experiments that were carried out using a 4 μM Rad51B protein in the absence of the Ev1 protein. Lanes 3 and 7 indicate the results of experiments that were carried out using a 4 μM Ev1 protein in the absence of the Rad51B protein. Lanes 4 and 8 indicate the results of experiments that were carried out using a 4 μM Ev1 protein and a 4 μM Rad51B protein. Further, lanes 1-4 indicate the results of experiments that were carried out in the presence of ATP, and lanes 5-8 indicate the results of experiments that were carried out in the absence of ATP. […] Lanes 1 and 5 indicate the results of control experiments in which neither the Ev1 nor the Rad51 protein was used. Lanes 2 and 6 indicate the results of experiments that were carried out using a 4 μM Rad51 protein in the absence of the Ev1 protein. Lanes 3 and 7 indicate the results of experiments that were carried out using a 4 μM Ev1 protein in the absence of the Rad51 protein. Lanes 4 and 8 indicate the results of experiments that were carried out using a 4 μM Ev1 protein and a 4 μM Rad51 protein. Further, lanes 1-4 indicate the results of experiments that were carried out in the presence of ATP, and lanes 5-8 indicate the results of experiments that were carried out in the absence of ATP.
The Rad51B protein was mixed in a concentration of 0.5 to 8 μM with a 4 μM Ev1 protein, and the activity was then measured. Lane 1 indicates the results of a control experiment in which neither the Rad51B protein nor the Ev1 protein was added, and lane 8 indicates the results of a control experiment in which a 8 μM Rad51B protein was added and no Ev1 protein was added. Lanes 2-7 indicate the results of experiments in which the Rad51B protein was added in concentrations of 0 μM, 0.5 μM, 1.0 μM, 2.0 μM, 4.0 μM, and 8.0 μM, respectively, in the presence of 4 μM Ev1.
A φ×174 or M13 mp18 circular single-stranded DNA (20 μM) was incubated at 37° C. in 20 mM HEPES-NaOH (pH 7.5), 1 mM DTT, 1 mM MgCl2, and 0.1 mg/ml BSA. Thereafter, the sample was subjected to a deproteination treatment with 0.2% SDS and 1.3 mg/ml proteinase K. The obtained product was separated by 0.9% agarose gel electrophoresis, and a DNA band was then stained with SYBR Gold (Invitrogen).

Ev1 protein [2] = target: T1, Ev1 protein; assay: Catenation of single-stranded DNA in coexistence of DNA topoisomerase type I protein and Ev1 protein; assay type: biochemical; conditions: 20 μM φ×174 single-stranded DNA; 37° C., 1 hour; E. coli TopoI 0.05-5 U or 2.8 nM hsTopoI
Procedure: A 20 μM φ×174 single-stranded DNA, a 4 μM Ev1 protein, and a DNA topoisomerase type I protein in each concentration or unit number (derived from Escherichia coli or a human) were added to 10 μl of a reaction solution (20 mM HEPES, 1 mM DTT, 100 μg/ml BSA, and 1 mM MgCl2). The obtained mixture was reacted at 37° C. for 1 hour. Thereafter, the sample was subjected to a deproteination treatment using 0.2% SDS and 1.3 mg/ml proteinase K. The obtained product was separated by 0.9% agarose gel electrophoresis, and a DNA band was then stained with SYBR Gold (Invitrogen) (FIG. 13).

B1: Rad51B: Rad51B protein purified by the previously reported method (Yokoyama et al.) (protein)
chain: MGSKKLKRVGLSQELCDRLSRHQILTCQDFLCLSPLELMKVTGLSYRGVHELLCMVSRACAPKMQTAYGIKAQRSADFSPAFLSTTLSALDEALHGGVACGSLTEITGPPGCGKTQFCIMMSILATLPTNMGGLEGAVVYIDTESAFSAERLVEIAESRFPRYFNTEEKLLLTSSKVHLYRELTCDEVLQRIESLEEEIISKGIKLVILDSVASVVRKEFDAQLQGNLKERNKFLAREASSLKYLAEEFSIPVILTNQITTHLSGALASQADLVSPADDLSLSEGTSGSSCVIAALGNTWSHSVNTRLILQYLDSERRQILIAKSPLAPFTSFVYTIKEEGLVLQAYGNS
effect on catenation of DNA molecules by the Ev1 protein (Ev1 protein [1]; 4 μM Rad51B, 4 μM Ev1 protein, absence of ATP): not significant
effect on catenation of DNA molecules by the Ev1 protein (Ev1 protein [1]; 4 μM added protein, 4 μM Ev1 protein, presence of ATP): significantly promoted

B2: DNA topoisomerase type I protein derived from Escherichia coli: TopoI (E. coli, New England Biolabs) (protein, UniProt P06612 1-865, looked up)
DNA topoisomerase 1: MGKALVIVESPAKAKTINKYLGSDYVVKSSVGHIRDLPTSGSAAKKSADSTSTKTAKKPKKDERGALVNRMGVDPWHNWEAHYEVLPGKEKVVSELKQLAEKADHIYLATDLDREGEAIAWHLREVIGGDDARYSRVVFNEITKNAIRQAFNKPGELNIDRVNAQQARRFMDRVVGYMVSPLLWKKIARGLSAGRVQSVAVRLVVEREREIKAFVPEEFWEVDASTTTPSGEALALQVTHQNDKPFRPVNKEQTQAAVSLLEKARYSVLEREDKPTTSKPGAPFITSTLQQAASTRLGFGVKKTMMMAQRLYEAGYITYMRTDSTNLSQDAVNMVRGYISDNFGKKYLPESPNQYASKENSQEAHEAIRPSDVNVMAESLKDMEADAQKLYQLIWRQFVACQMTPAKYDSTTLTVGAGDFRLKARGRILRFDGWTKVMPALRKGDEDRILPAVNKGDALTLVELTPAQHFTKPPARFSEASLVKELEKRGIGRPSTYASIISTIQDRGYVRVENRRFYAEKMGEIVTDRLEENFRELMNYDFTAQMENSLDQVANHEAEWKAVLDHFFSDFTQQLDKAEKDPEEGGMRPNQMVLTSIDCPTCGRKMGIRTASTGVFLGCSGYALPPKERCKTTINLVPENEVLNVLEGEDAETNALRAKRRCPKCGTAMDSYLIDPKRKLHVCGNNPTCDGYEIEEGEFRIKGYDGPIVECEKCGSEMHLKMGRFGKYMACTNEECKNTRKILRNGEVAPPKEDPVPLPELPCEKSDAYFVLRDGAAGVFLAANTFPKSRETRAPLVEELYRFRDRLPEKLRYLADAPQQDPEGNKTMVRFSRKTKQQYVSSEKDGKATGWSAFYVDGKWVEGKK
effect on catenation of single-stranded DNA molecules in coexistence with the Ev1 protein (Ev1 protein [2]): promoted

B3: DNA topoisomerase type I protein derived from a human: hsTopoI (human, Jena Bioscience) (protein, UniProt P11387 2-765, looked up)
DNA topoisomerase 1: SGDHLHNDSQIEADFRLNDSHKHKDKHKDREHRHKEHKKEKDREKSKHSNSEHKDSEKKHKEKEKTKHKDGSSEKHKDKHKDRDKEKRKEEKVRASGDAKIKKEKENGFSSPPQIKDEPEDDGYFVPPKEDIKPLKRPRDEDDADYKPKKIKTEDTKKEKKRKLEEEEDGKLKKPKNKDKDKKVPEPDNKKKKPKKEEEQKWKWWEEERYPEGIKWKFLEHKGPVFAPPYEPLPENVKFYYDGKVMKLSPKAEEVATFFAKMLDHEYTTKEIFRKNFFKDWRKEMTNEEKNIITNLSKCDFTQMSQYFKAQTEARKQMSKEEKLKIKEENEKLLKEYGFCIMDNHKERIANFKIEPPGLFRGRGNHPKMGMLKRRIMPEDIIINCSKDAKVPSPPPGHKWKEVRHDNKVTWLVSWTENIQGSIKYIMLNPSSRIKGEKDWQKYETARRLKKCVDKIRNQYREDWKSKEMKVRQRAVALYFIDKLALRAGNEKEEGETADTVGCCSLRVEHINLHPELDGQEYVVEFDFLGKDSIRYYNKVPVEKRVFKNLQLFMENKQPEDDLFDRLNTGILNKHLQDLMEGLTAKVFRTYNASITLQQQLKELTAPDENIPAKILSYNRANRAVAILCNHQRAPPKTFEKSMMNLQTKIDAKKEQLADARRDLKSAKADAKVMKDAKTKKVVESKKKAVQRLEEQLMKLEVQATDREENKQIALGTSKLNYLDPRITVAWCKKWGVPIEKIYNKTQREKFAWAIDMADEDYEF
effect on catenation of single-stranded DNA molecules in coexistence with the Ev1 protein (Ev1 protein [2]): promoted

B4: Rad51 protein: Rad51 protein showing sequence similarity to Rad51B (protein, UniProt Q06609 2-339, looked up)
DNA repair protein RAD51 …: AMQMQLEANADTSVEEESFGPQPISRLEQCGINANDVKKLEEAGFHTVEAVAYAPKKELINIKGISEAKADKILAEAAKLVPMGFTTATEFHQRRSEIIQITTGSKELDKLLQGGIETGSITEMFGEFRTGKTQICHTLAVTCQLPIDRGGGEGKAMYIDTEGTFRPERLLAVAERYGLSGSDVLDNVAYARAFNTDHQTQLLYQASAMMVESRYALLIVDSATALYRTDYSGRGELSARQMHLARFLRMLLRLADEFGVAVVITNQVVAQVDGAAMFAADPKKPIGGNIIAHASTTRLYLRKGRGETRICKIYDSPCLPEAEAMFAINADGVGDAKD
effect on catenation of DNA molecules by the Ev1 protein (Ev1 protein [1]; 4 μM Rad51, 4 μM Ev1 protein, regardless of presence or absence of ATP): inhibited the catenation of DNA molecules by the Ev1 protein

— US20100068766A1, “COMPOSITION FOR CLEAVING AND/OR CONNECTING SINGLE STRAND DNA” (WASEDA UNIVERSITY, priority 2007, published 2010)
